Substitutions are numbered along the chain they refer to.
B1: humanized anti-CLDN-18.2 antibody JS012-Chi27-hu3-v2 (antibody, human IgG1, V domains shown)
VH: EVQLVESGGGLVKPGGSLRLSCAASGFTFSSYGMSWVRQAPGKGLEWVSTISGGDSYTYYPDSVRGRFTISRDNAKNSLYLQMNSLRAEDTAVYYCARSYNGNSLPYWGQGTLVTVSS
VL: DIVMTQSPDSLAVSLGERATINCKSSQSLLNSGNQRNYLTWYQQKPGQPPKLLIYWASTRESGVPDRFSGSGSGTDFTLTISSLQAEDVAVYYCQNNYFYPFTFGQGTKLEIK
B2: humanized anti-CLDN-18.2 antibody JS012-Chi27-hu6-v3-2 (antibody, human IgG1, V domains shown)
VH: B1 VH with W47S, N74I
VL: B1 VL
B3: anti-CLDN-18.2 chimeric antibody Chi-JS012-2 (antibody, V domains shown)
VH: DVQLVESGGGLVQPGGSRKLSCAASGFTLNNFGMHWVRQAPEKGLEWVACISSGSGTIYYADTVKGRFTISRDNPKNTLFLQMTSLRSEDTAMYYCARAYYGNGFSFWGQGTLVTVSS
VL: DIVMTQSPSSLTVTAGEKVTMSCKSSQSLLNSGNQKNYLTWYQQKPGQPPKLLIYWASTRESGVPDRFTGSGSGTDFTLTISSVQAEDLAIYYCQNVYSYPLTFGAGTKLEIK
notes: Fused to a human heavy chain constant region and a human kappa constant region cloned from human blood cells
B4: anti-CLDN-18.2 chimeric antibody Chi-JS012-27 (antibody, V domains shown)
VH: EVKLVESGGGLVKPGGSLKLSCAASGFTFSSYGMSWVRQTPEKRLECVATISGGDSYTYYPDSVRGRFTISRDIAKNNLYLQMSSLRSEDTALYYCARSYNGNSLPYWGQGTLVTVSS
VL: B3 VL with S7Y, S10F, A15T, K36R, T69A, V97N, S99F, L102F, A106S, I112V
notes: Human heavy chain constant region and human kappa constant region
B5: anti-CLDN-18.2 chimeric antibody Chi-JS012-9 (antibody, V domains shown)
VH: QIQLVQSGPELKKPGETVKISCKASGYTFTNYGMNWVKQAPGKGLKWMGWINTYTGESTYADDFKGRFAFSSETSARTAYLQINNLKNEDMATYFCATLGYGNSLAYWGQGTLVTVSS
VL: B3 VL with S7Y, S10F, A15T, K36R, T69A, V97N, S99F, L102F, A106S, I112V
notes: as for B4
B6: anti-CLDN-18.2 chimeric antibody Chi-JS012-10 (antibody, V domains shown)
VH: B5 VH
VL: B3 VL with S10F, E61D, S82T, I91V, Y92F, V97A, S99F, L102F, A106S
notes: as for B4
B7: anti-CLDN-18.2 chimeric antibody Chi-JS012-21 (antibody, V domains shown)
VH: B5 VH with D90G, T98R, L99S, G100Y, Y101N, A106P
VL: B3 VL with S7Y, S10F, A15T, K36R, T69A, V97N, S99F, L102F, A106S, I112V
notes: as for B4
B8: IMAB362 (antibody, V domains shown)
VH: QVQLQQPGAELVRPGASVKLSCKASGYTFTSYWINWVKQRPGQGLEWIGNIYPSDSYTNYNQKFKDKATLTVDKSSSTAYMQLSSPTSEDSAVYYCTRSWRGNSFDYWGQGTTLTVSS
VL: DIVMTQSPSSLTVTAGEKVTMSCKSSQSLLNSGNQKNYLTWYQQKPGQPPKLLIYWASTRESGVPDRFTGSGSGTDFTLTISSVQAEDLAVYYCQNDYSYPFTFGSGTKLEIKR
B9: humanized anti-CLDN-18.2 antibody JS012-Chi9-hu7-v2 (antibody, human IgG1, kappa, V domains shown)
VH: QVQLVQSGSELKKPGESVKVSCKASGYTFTNYGMNWVRQAPGQGLEWMGWINTYTGESTYADGFTGRFVFSMDTSASTAYLQISSLKAEDMAMYFCATLGYGNSLAYWGQGTLVTVSS
VL: DIVMTQSPDSLAVSLGERATINCKSSQSLLNSGNQRNYLTWYQQKPGQPPKLLIYWASTRESGVPDRFSGSGSGTDFTLTISSLQAEDVAVYYCQNNYFYPFTFGQGTKLEIKR
B10: humanized anti-CLDN-18.2 antibody JS012-Chi2-hu2-v3-2 (antibody, human IgG1, kappa, V domains shown)
VH: EVQLVESGGGLVQPGGSLRLSCAASGFTLNNFGMHWVRQAPGKGLEWVSSISSGSGTIYYADSVKGRFTISRDNPKNSLYLQMNSLRAEDTAVYYCARAYYGNGFSFWGQGTLVTVSS
VL: B9 VL with R36K, N97V, F99S, F102L
B11: humanized anti-CLDN-18.2 antibody JS012-Chi9-hu7 (antibody, human IgG1, kappa, V domains shown)
VH: B9 VH with V2I, M72S, S77R, M91T, M93V
VL: B9 VL

Columns and labels:
[1] = biological target: T1, human CLDN-18.2 (human, UniProt P56856-2 1-261); test: cell-based or functional assay
[2] = biological target: T1, human CLDN-18.2; test: flow cytometry (FACS) on NUGC4-CLDN-18.2 cells, fluorescent secondary antibody, MFI
Source text: Fluorescent signal was detected by FACS; the stronger the detected fluorescent signal, the higher the antibody affinity, that is, the higher the target binding activity. Antibody binding curves were fitted by GraphPad (FIGS. 4a, 4b and 4c), and the positive and negative controls were IMAB362 and anti-KLH hu-IgG1 antibody, respectively.

[3] = biological target: T1, human CLDN-18.2; test: flow cytometry on NUGC4-CLDN-18.2 cells, 4 C 30 min, fluorescent secondary antibody
Procedure: Finally, the fluorescence intensity was detected by BD CantoII flow cytometer. The stronger the fluorescent signal, the higher the affinity of the antibody to the target. The antibody dose-dependent binding curve was fitted by GraphPad (FIG. 1) and EC₅₀ was calculated (Table 3). The positive and negative controls were IMAB362 and anti-KLH hu-IgG1 antibody, respectively.

Binder	EC50 of ADCC effect (Jurkat ADCC NFAT luciferase reporter cells) [1] [µg/mL]	EC50 of CDC effect (complement serum, PI staining, relative killing rate) [1] [µg/mL]	EC50 (read off the curve) [2] [µg/mL]	EC50 of ADCC effect (Jurkat NFAT-Luc/FcγRIIIaR reporter cells) [1] [µg/mL]	EC50 of CDC effect (complement serum, PI staining, flow cytometry) [1] [µg/mL]	EC50 [3] [µg/mL]	further results
B1	0.0358	0.169	~1				
B2	0.0742	0.715	~5				
B3				0.0561	0.461	4.02	
B4				0.0432	0.265	2.92	
B5				0.0436	0.316	3.22	
B6				0.0495	0.358	3.19	
B7				0.0631		2.37	
B8			~2		0.354		EC50 of ADCC effect (Jurkat NFAT-Luc/FcγRIIIaR reporter cells), FIG. 2a [1]: 0.036 µg/mL; EC50 of ADCC effect (Jurkat NFAT-Luc/FcγRIIIaR reporter cells), FIG. 2b [1]: 0.0344 µg/mL; EC50 [2]: 1.39 µg/mL
B9	0.0225	0.134	~1				
B10	0.0142	0.167					EC50 [2]: 1.65 µg/mL
B11	0.0236	0.086	~1				
